From patent publication US20260034194A1, “PHARMACEUTICAL COMPOSITIONS AND METHODS OF TREATING PSP” (priority 2022, published 2026)
“Also recorded” adds a separate entry of the source. Read-outs that look alike come from different tables or passages of the source.

What was measured:
[1] = test system: TTX poisoning in female CD-1 mice; settings: mouse, in vivo, ip
[2] = test system: STX poisoning in female CD-1 mice; type: in vivo; settings: RcSxph:STX 2:1 molar ratio, 30 nmoles/Kg STX, 60 nmoles/Kg RcSxph, IP, observed up to one hour
[3] = type: binding; settings: ITC, STX, 25° C.
Procedure: . […] In almost all mutants, binding affinity loss correlated with a reduction in enthalpy, consistent with a loss of interactions (Table S2). […]. […] Together, these three assays (FIGS. 1E and G) provide a robust and versatile suite of options for characterizing STX:Sxph interactions.
ITC measurements were performed at 25° C. using a MicroCal PEAQ-ITC calorimeter (Malvern Panalytical). […]. This STX stock was diluted with the SEC buffer to prepare 100 μM or 300 μM STX solutions having a final buffer composition of 135 mM NaCl, 9 mM HEPES, pH 7.4. […]. The calorimetric experiment settings were: reference power, 5 μcal/s; spacing between injections, 150 s; stir speed 750 rpm; and feedback mode, high. Data were analyzed using MicroCal PEAQ-ITC Analysis Software (Malvern Panalytical) using a single binding site model. The heat of dilution from titrations of 100 μM STX in 135 mM NaCl, 9 mM HEPES, pH 7.4 into 135 mM NaCl, 9 mM HEPES, pH 7.4 was subtracted from each experiment to correct the baseline.

[4] = type: binding
[5] = Thermofluor (TF) assay of STX binding; settings: 1.1 μM Sxph, 0-20 μM STX; ΔTm at 20 μM toxin
[6] = read-out: RcSxph affinity for STX; prior radioligand assay; cited from earlier work
female CD-1 mice = settings: 60 nmoles/Kg RcSxph, IP, observed up to one hour

B1: RcSxph: Rana (Lithobates) catesbeianus (American bullfrog) saxiphilin, SEQ ID NO: 1 (protein)
chain: MAPTFQTALFFTIISLSFAAPNAKQVRWCAISDLEQKKCNDLVGSCNVPDITLVCVLRSSTEDCMTAIKDGQADAMFLDSGEVYEASKDPYNLKPIIAEPYSSNRDLQKCLKERQQALAKKMIGHYIPQCDEKGNYQPQQCHGSTGHCWCVNAMGEKISGTNTPPGQTRATCERHELPKCLKERQVALGGDEKVLGRFVPQCDEKGNYEPQQFHGSTGYSWCVNAIGEEIAGTKTPPGKIPATCQKHDLVTTCHYAVAMVKKSSAFQFNQLKGKRSCHSGVSKTDGWKALVTVLVEKKLLSWDGPAKESIQRAMSKFFSVSCIPGATQTNLCKQCKGEEGKNCKNSHDEPYYGNYGAFRCLKEDMGDVAFLRSTALSDEHSEVYELLCPDNTRKPLNKYKECNLGTVPAGTVVTRKISDKTEDINNFLMEAQKRQCKLFSSAHGKDLMFDDSTLQLALLSSEVDAFLYLGVKLFHAMKALTGDAHLPSKNKVRWCTINKLEKMKCDDWSAVSGGAIACTEASCPKGCVKQILKGEADAVKLEVQYMYEALMCGLLPAVEEYHNKDDFGPCKTPGSPYTDFGTLRAVALVKKSNKDINWNNIKGKKSCHTGVGDIAGWVIPVSLIRRQNDNSDIDSFFGESCAPGSDTKSNLCKLCIGDPKNSAANTKCSLSDKEAYYGNQGAFRCLVEKGDVAFVPHTVVFENTDGKNPAVWAKNLKSEDFELLCLDGSRAPVSNYKSCKLSGIPPPAIVTREESISDVVRIVANQQSLYGRKGFEKDMFQLFSSNKGNNLLFNDNTQCLITFDRQPKDIMEDYFGKPYYTTVYGASRSAMSSELISACTIKHC
mitigation of TTX poisoning in mice [1]: unable to mitigate TTX poisoning
protection of mice from STX poisoning [2]: protects mice from STX poisoning; also recorded: sufficient to protect mice completely from STX intoxication
Kd [3]: 1.2 ± 0.8 nM
ΔH [3]: -16.1 ± 0.2 kcal/mol
ΔS (cal mol^−1 K^−1) [3]: −12.7 ± 0.9 cal mol^−1 K^−1
ΔH ([3]; listed as RcSxph WT): -16.1 ± 0.2 kcal/mol
ΔTm (TTX-induced change of melting temperature) [4]: 0.3 °C
ΔTm (STX-induced change of melting temperature) [5]: 3.6 °C
Kd [6]: ~1 nM
adverse effects of RcSxph alone (female CD-1 mice): no detectable adverse effects
